# Assay results published in patent publication US20070196354A1, “Method of treating diabetes by inhibiting degradation of at least one of crebl1, atf6, and hnf-4 alpha by htra” (priority 2003, published 2007).
# T1: CREBL1 (Homo sapiens, UniProt Q99941)
# T1 construct: expressed in transfected cells; host or cells: HEK293T
# T1 sequence (Q99941 1-703): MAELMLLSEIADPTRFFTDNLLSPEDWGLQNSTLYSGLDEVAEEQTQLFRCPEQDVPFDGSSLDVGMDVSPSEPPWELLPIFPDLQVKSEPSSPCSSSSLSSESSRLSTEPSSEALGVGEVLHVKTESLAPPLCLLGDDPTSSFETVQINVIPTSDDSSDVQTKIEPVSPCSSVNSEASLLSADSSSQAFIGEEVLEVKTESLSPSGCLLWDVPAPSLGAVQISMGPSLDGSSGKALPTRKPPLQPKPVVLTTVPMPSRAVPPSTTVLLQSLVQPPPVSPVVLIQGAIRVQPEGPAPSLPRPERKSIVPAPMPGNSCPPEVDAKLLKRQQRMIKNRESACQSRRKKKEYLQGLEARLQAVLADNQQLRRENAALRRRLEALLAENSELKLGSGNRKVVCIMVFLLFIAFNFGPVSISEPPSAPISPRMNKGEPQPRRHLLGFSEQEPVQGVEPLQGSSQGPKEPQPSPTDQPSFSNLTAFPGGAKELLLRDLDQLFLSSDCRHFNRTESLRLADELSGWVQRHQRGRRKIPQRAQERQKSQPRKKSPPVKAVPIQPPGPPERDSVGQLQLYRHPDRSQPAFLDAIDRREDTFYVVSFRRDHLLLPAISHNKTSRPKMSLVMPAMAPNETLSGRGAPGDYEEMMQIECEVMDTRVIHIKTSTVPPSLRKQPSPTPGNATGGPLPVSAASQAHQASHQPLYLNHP
# Biological target: T1, CREBL1
# Test: In vitro protease assay, CREBL1 captured on resin
# Type: biochemical
# Details: 50 μg/ml, 37° C., overnight (O/N), anti-c-Myc detection
# Protocol: CREBL1 and ATF6 which were captured on the resin were used in the experiments in order to eliminate the influence of proteinaceous impurities contained in the soluble fractions prepared from the cells obtained by transfecting an expression plasmid of CREBL1 or ATF6. Three hundreds μl of each soluble fraction of CREBL1 and ATF6 was dispensed to six tubes (Nos. 1 to 6), followed by adding 20 μl of protein G sepharose 4 FF (Amersham) of 50% slurry that had been subjected to blocking with BSA, to each of tubes, subjected to overturned mixing at 4° C. for 1 hour, and then subjected to centrifugation (10,000 rpm, 10 sec, 4° C.) to collect the supernatant, and thus the pre-treatment (pre-clean) was performed. The resultant supernatant was mixed with 1.7 μl (2 μg) of anti-Myc antibody (Invitrogen), subjected to overturned mixing at 4° C. for 3 hours, followed by adding 20 μl of protein G sepharose 4 FF that had been subjected to blocking with BSA, and then subjected to overturned mixing at 4° C. overnight. Thus, CREBL1 and ATF6 were respectively captured on protein G sepharose 4 FF. […]
molecule,measurement,value
"mature HtrA2: SEQ ID NO: 4; mature protein generated from HtrA2 precursor by cleavage of N-terminal 133 residues, has protease activity (protein, listed as Homo sapiens, mature HtrA2) MAVPSPPPASPRSQYNFIADVVEKTAPAVVYIEILDRHPFLGREVPISNGSGFVVAADGLIVTNAHVVADRRRVRVRLLSGDTYEAVVTAVDPVADIATLRIQTKEPLPTLPLGRSADVRQGEFVVAMGSPFALQNTITSGIVSSAQRPARDLGLPQTNVEYIQTDAAIDFGNSGGPLVNLDGEVIGVNTMKVTAGISFAIPSDRLREFLHRGEKKNSSSGISGSQRRYIGVMMLTLSPSILAELQLREPSFPDVQHGVLIHKVILGSPAHRAGLRPGDVILAIGEQMVQNAEDVYEAVRTQSQLAVQIRRGRETLTLYVTPEVTE",degradation of CREBL1 (band by western blotting),the band of CREBL1 was reduced significantly
